Measurements reported in a protein production outcome set (Wang et al. 2014).

assay: label from the status in PepcDB records
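Also: failed if final PepcDB status was selected cloned or expressed and not failed if soluble or beyond.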

For “MNKTFVGFIFLLFLVGGVVSCQRSSSPYPYSLRYADSLMEISPERTLAYLRKLDVSTYSAGDRAYFSLLFTQATDKNMLSLLPCDSLIDTALDYYIKKDGVNWAKAWLYKGRIQKKMNMTEQALKSCFTALQGVEGNTGEELKLKGMLYEDMGSIYLHQSLYQKAFDAFYRSYQCDSLLNDHRLVMYPLSNMGWVRVIQGKTVEAFYYLNQSIQLALRLNDSAFVSDIYERMSLNCENVDSAFLYAHLSHQYLTKDGDSISLWLTFGDLYLDKQELDSAEYYLKRILDTADFKRKILASYSLAEVEKIRGNYQRAFEYQSYYGDNIDSIFLLNKASDIERLAYKYDSEAKVVKEKEKQRFLIQQLCYGGVLFLLVIVVIFQRVYRRRQIARLLYEQRITYLNEKTALSQLQIERLEVQISALKQSGMEREQEIDLKQAELCCVIDEKARLRNCLFMETSIFKHIRELSTQPRLGQNGTKGSPKVLLMKEQEQLKNILFGIYDDYIRYLKGTYPKITDNDCIYCCLKLCEFDDQTIAYCFGNVSKQIVAQRRLRLKKKMAEAN”, which protein production is on record?
The protein production was “failed”.

Which protein production does the source give for “MNKTLIAAAVAGIVLLASNAQAQTVPEGYQLQQVLMMSRHNLRAPLANNGSVLEQSTPNKWPEWDVPGGQLTTKGGVLEVYMGHYMREWLAEQGMVKSGECPPPYTVYAYANSLQRTVATAQFFITGAFPGCDIPVHHQEKMGTMDPTFNPVITDDSAAFSEQAVAAMEKELSKLQLTDSYQLLEKIVNYKDSPACKEKQQCSLVDGKNTFSAKYQQEPGVSGPLKVGNSLVDAFTLQYYEGFPMDQVAWGEIKSDQQWKVLSKLKNGYQDSLFTSPEVARNVAKPLVSYIDKALVTDRTSAPKITVLVGHDSNIASLLTALDFKPYQLHDQNERTPIGGKIVFQRWHDSKANRDLMKIEYVYQSAEQLRNADALTLQAPAQRVTLELSGCPIDADGFCPMDKFDSVLNEAVK” here?
Its protein production is “not failed”.

For “MNKYFPLAKYKKEKMMFMKLLEGCYKVERLYIYSKRLCKQMEPKSQEEYNIARKQIKKTFDEGWTEADCGGRESCILEIPFVFWSSPNKSNCRRQPKRSYGKKLLYIPLNDLKDDIPYPNSSSEAGKVWKPQ”, which protein production is on record?
Its protein production is “failed”.

For “MNLANIVQRGWEALGAGDFDTLVTDYVEKMIFIMPGQADVLKGRQAFRSALDNLGEILPPGFEITGLRQLEGENEIVSIVEWKSDKMIASQLSVLFKFEGDQIYEERWFVDTEQWKSVF”, which protein production is on record?
The protein production was “not failed”.

With “MNLDRRGLILLVILTLAWGINWPIMKLGVAHFPAMAFRLLCMAGGLVALGLALTFRGDSLRVPRAAWGTVLKLAIPNMVIWHLFAICAVKMLSSGRAAILGYTMPIWAVVWGLVIFRDRIALSAWIGIGCALAGTVLLLSGEIAALTGSPAGTLLMLVAAAGWGFGTQLMKRTHTDVPIGAMTFWMLAITLPFLGAGTLLFESGWRMPTAIEWGAIAYNAVVVFAYCHLVWFALARSLPPVVSSLSIMFIPVVGVFSGMWFLGETPHWQDYVAIVLMFAALSSVMLAPLLRRRM” as the sequence, how does the protein production read?
The protein production was “failed”.

For “MNLETIPSGELTVSNQRSISRLVAQAGQMLLAHGAESTLVCDIMRRIGLACGVHEVAVALSANALVVTTVMDGHCITTTRSCADRGINMRVITQIQRICIMMERGLLDAAMAQKKLNTISPERYNRWLVVLMIGLSCAAFSHLAGGDWGVFIMTFLASAGGMIVRQEIGHRHFNPLLNFAATAFVTTLISAQAEIYQIGNLPTVAMASSVLMLVPGFPLINSVADMLKGHINMGIARFVMASLLTLATCLGIVAAMSVTGIWGWAI”, which protein production is on record?
Its protein production is “failed”.

For “MNLFGQKDRGNHVSGVDRGKVIMYGLSTCVWCKKTKKLLTDLGVDFDYVYVDRLEGKEEEEAVEEVRRFNPSVSFPTTIINDEKAIVGFKEKEIRESLGF”, which protein production is on record?
The protein production was “not failed”.

For “MNLFKKIIFGAAVMGLMAAGDASAAGKIVIDGSTTVGPIAKAFAAYFHKKTGIDVTVSESGSGNGAKSLINKTCDIADMSRPMEPKEIAAAKANGVNPVEHVVALDGLSMIVHPSNPVAKLTTAQIHDIYLGKITNWKQVGGPNAQIVFVQRESNSGTQECFEKLVMKDDKIAPAAETAASNGAVKSRVASTPNAIGFVGLGFVDKSVKPLIVNGVKPSIATVRNGSYVLHRPLFMYTNGQPKGDVAKFINLPKTPDGKRMISELGFVNK”, which protein production is on record?
Its protein production is “failed”.

With “MNLGAAEEESAQEIHLPADINWEMLDKSKFFVLGAALFSGVSGALYPAVLMKTRQQVCHSQGSCIKTAFTLVRHEGLRGLYRGFGTSLMGTIPARALYMTALEVTKSNVGSAAVSLGLTEAKAAAVANAVGGLSAAMAAQLVWTPVDVVSQRLMVQGSAGLVNASRCNYVNGFDAFRKIVRADGPKGLYRGFGISILTYAPSNAVWWASYSVAQRMVWGGIGCYVCKKDEESGNNSTTMKPDSKTIMAVQGVSAAIAGSVSALITMPLDTIKTRLQVLDGEDSSNNGKRGPSIGQTVRNLVREGGWTACYRGLGPRCASMSMSATTMITTYEFLKRLSAKNHDGFYSKS” as the sequence, how does the protein production read?
The protein production was “failed”.

Which protein production does the source give for “MNLIKTCGLCLLLSVALSGCVTAPTPPESDPQAEQAVLEVSFSEAVKAMKQGNFTEARTVFEQLARNYPDKAGPMANLGIIAFREGDADGAKEWFERARAVNPEHVQALNHLGVIARNAGEFDEAERYYRAALAADPDYAPAILNLAFLLDIYLGNPADAIELYERYQSAASEPHPRLEDWIFDAKNRI” here?
Its protein production is “failed”.

With “MNLLNLFTYVIPIAICIILPIFIIVTHFQIKSLNKAVTSFNKGDRSNALEILSKLVKSPIKNVKANAYITRERIYFYSRDFELSLRDLLQAIKLRPKTINDVYSFALSYHILGEPERALKYFLRAVELQPNVGISYENLAWFYYLTGKYDKAIENFEKAISMGSTNSVYRSLGITYAKIGDYKKSEEYLKKALDAEPEKPSTHIYFSYLKRKTNDIKLAKEYALKAIELNKNNFDGYKNLAEVNLAEDDYDGFYKNLEIFLEKINFVTNGEDFNDEVYDKVKDNEKFKELIAKTKVIKFKDLGIEIDDKKILNGKFLV” as the sequence, how does the protein production read?
Its protein production is “failed”.

Which protein production does the source give for “MNLNEYKLLTFFNMKYKRKSKEEFLIKYQHDNTFRIMSLCLIILFLGVMSASVAHAESYKFVTKWGSYGNGAGQFHYPRAIVATSSGYIYVADSGNNRVQEFNSNGKFINQWSSTNDVSLGSVNGVAIDSSGDVYVADTNNRIVKFDKNGNFITKFGSYGSGNVQFKNARDICLDSSGNIYVADTGNNRIQKLDNNGNYLVQWGSYGSSNGQFKNPIDVALDSLDNVYVADKDNHCIKKFDSNGNYLMQFGNSGNGDGQFNNIISVFVDSSGNIYVSDRGNTRIQKFDSDGNYLTHWGSYGTNDGQFKNPEDIGVDSSGNVYVADADNNRIQKFAPVYPPVTNFVSNVTTGYAPLAVKFTDTSTGTPFSWTWNFGDGTFSTVKNPTHTYSKAGKYTVKLTATNEGGNSTAAKTNYITVKTTTVKPVAIFSASPTSGKAPLKVTFTDKSTGSPTKWKWNFGDGSKSFLQNPSHKYSKAGKYTVSLTVKNDKGSNTVTKTNYLTVVAKPVAAFSASPTSGKAPLKVTFTDKSTGSPTKWKWNFGDGTTSAKQNPIHKYSKAGKYKVTLTVANAAGINTVTKTNYITVIAKPAAAFSASPTSGKAPLKVTFSDKSTGTPTKWKWTFGDGSKSFLQNPTHKYSKAGKYKVILTVTNTAGSNTVTKTNYITVVAKPVAAFSASPTSGKAPLKVTFSDKSTGTPTKWKWNFGDGATSIKQNPVHKYSNVGSYTVKLTVTNAAGSNTKTISNYIILKSK” here?
Its protein production is “failed”.

For “MNLNQLDIIVSNVPQVCADLEHILDKKADYANDGFAQFTIGSHCLMLSQNHLVPLENFQSGIIIHIEVEDVDQNYKRLNELGIKVLHGPTVTDWGTESLLVQGPAGLVLDFYRMK”, which protein production is on record?
Its protein production is “not failed”.

For “MNLQHITILTLFIEGLLSFFSPCVLPILPVYIGILAGQGEEKQSGEIIWDRRKVFTNTFLFISGIAATFFILAFASSLISQFLQSHIQFLQNLGGILILIMGLVQVGLIKSHFFNREYSAKNKVYQAGQKVTPLIAFLMGFTFSFSWTPCIGPILASVFLYASTHQGIYSVLLILIYCLGFVIPFALIALFSQRVMSVFKKQKRFLKYTKLFSGILLILIGISILTGSFAKIAHLFN”, which protein production is on record?
The protein production was “failed”.

For “MNLRAIKAILIKDLKEIRREKMVVFWIFVFPLMWVTLMGALWGGPGSPVTVDVGVVNPGGNISTLITEIMENSTINGTQLFNVKLFPNASLGIEALKHGSIKALVLFPEDFDINITSGLQGRVLVYFDKTDPQNYQIVSSIIRSFFSEVGREFRARKIEMMMQYIPTEYKEYLLATAEPIVLEEKIIHGESGRGIKFYVTSFIGIQFFFATMLMIGGSVLEEITKGTLRRIAASPTTPWDFLIGKSLSTLTTIIVSIIIGIGYARVVFGATLFPSLFGWAIIFTAAVFSMSLGLAIVMLTRSERSTPAVVNLVSMPLLFLAGIVIPESIMPEWARPIAHYFPLGRALKVLRLSDIYGRPPGELVGDFIYVLIWSVLMAMVAVASYAWAIRRID”, which protein production is on record?
Its protein production is “failed”.

Which protein production does the source give for “MNLTKVKGNTFFIKGGTNTGIYVFEDNTALMIDPGLCGSRPRRVNKVLDENNIQVRYIINTHGHDDHYGACNQFKEYYKDVCIMSSEYDKLYIENPELFSKYIVGGKSNVFMDNILKNKMLDDIKIDKSIEAGKFELNNEMFDIIEFQGHTPGSIAVLTKDNVIFVGDLLIGDEILSKYDFLFLYDIQEQINSLEKLKNIDFEYLVLGHGKQVISKEDSYKLIEKHLNALKKYLYQIRELLVEPKSLEILLKNIINNNNLSNNYKEYHFFKSSLVSVISYLVDLEEIGYILENGELLYYTKTK” here?
The protein production was “failed”.

Which protein production does the source give for “MNMDPLIYVAALLFTGLLAGLATGLLGVGGGFIIAPVLFFLMEAGGTPPDIAIRTAFGTSLAIILPTALSGAHSHYRRKCVDSRIGITMGVLGACGSVAGVFTASASPAYVLRAFFGVLLILVSAQLLLSSRISPSGFGRNAAFPLGFLAGFLSGLLGIGGGVVLVPLLVMVAGFDVLEAVGTSSLVIAFTAASGTISYIFTGPGGPFTVGYVNLLQFLLVIVMSVPSSRLGALIAHRVDVRYIRYIFIILLLFTGLKMLL” here?
Its protein production is “failed”.

With “MNMIRRLTALTLSLMLAGGPALAQTVVIVRHGEKVSPNGDPDLSDAGKARAQALAAALAGARVSTVLATPLKRTQQTAQPTADAAGLVIRTIALDGGVPAHAQRVAEVARQAPKDATVLIVGHSNTVGEIARALGDAAPSPVTDCDYDQMTIISLDAPTARTLHARYGAPTLPCPTN” as the sequence, how does the protein production read?
The protein production was “failed”.

For “MNNKDLWIKEEIIWSEHKCIRFAAGGYEALIIPDVGGNVVELKDTNKGVTILRTPKKDLKFEDFKNRPQVYGLPVLFPPNRIDDGTFKLGDKTYKFPINEAKNNNYIHGFIKNSKWTVHKKKIDQDKALVEVVFDFTKENEAYKYFSHEFQFKLSYELSSKGLKQTTSVVNLSSEEMPLSVGYHSAFNVPFIEGSEDSNCRVKISIDKFWKQDSRNLPTGESFAPTGEQKEYLENGVAVASHPIESLFSLKDIDVNGKTFRGACIEDASKNTRVVYEMSSEYKYLVIWNDMGDKKYACIEPQTSIINSPNVKLDRSVSGFKTLKPNESWSGVCKLYIENM”, which protein production is on record?
Its protein production is “not failed”.

Which protein production does the source give for “MNNLFVYCEIEEGIVADVSLELLTKGRSLANELNCQLEAVVAGTGLKEIEKQILPYGVDKLHVFDAEGLYPYTSLPHTSILVNLFKEEQPQICLMGATVIGRDLGPRVSSALTSGLTADCTSLEIGDHEDKKEGKVYKNLLYQIRPAFGGNIVATIVNPEHRPQMATVREGVMKKEIVSPAYQGEVIRHDVKKYVADTDYVVKVIERH” here?
The protein production was “not failed”.

Which protein production does the source give for “MNNLIITTRQSPVRLLVDYVATTILWTLFALFIFLFAMDLLTGYYWQSEARSRLQFYFLLAVANAVVLIVWALYNKLRFQKQQHHAAYQYTPQEYAESLAIPDELYQQLQKSHRMSVHFTSQGQIKMVVSEKALVRA” here?
The protein production was “failed”.

With “MNNLQTKFPHIAIKLNEPLSKYTYTKTGGAADVFVMPKTIEEAQEVVAYCHQNKIPLTILGNGSNLIIKDGGIRGVILHLDLLQTIERNNTQIVAMSGAKLIDTAKFALNESLSGLEFACGIPGSIGGALHMNAGAYGGEISDVLEAATVLTQTGELKKLKRSELKAAYRFSTIAEKNYIVLDATFSLALEEKNLIQAKMDELTAAREAKQPLEYPSCGSVFKRPPGHFAGKLIQDSGLQGHIIGGAQVSLKHAGFIVNIGGATATDYMNLIAYVQQTVREKFDVELETEVKIIGEDK” as the sequence, how does the protein production read?
Its protein production is “not failed”.
